Experimental data from PMC10504565.

Target: endogenous POLR2A/RPB1, the largest subunit of RNA pol II, of HepG2 cells (human (endogenous in HepG2)) (UniProt P24928)
Assay: proximity ligation; fixed HepG2 cells (SHP-1 WT; SHP-1 KO as negative control), anti-SHP-1 and anti-RPB1 antibodies, Duolink In Situ kit; nuclear dots counted in at least 400 nuclei

endogenous SHP-1 of HepG2 cells, P29350 1-595 (natural protein; other documents disagree on this pair), sequence (P29350 whole entry): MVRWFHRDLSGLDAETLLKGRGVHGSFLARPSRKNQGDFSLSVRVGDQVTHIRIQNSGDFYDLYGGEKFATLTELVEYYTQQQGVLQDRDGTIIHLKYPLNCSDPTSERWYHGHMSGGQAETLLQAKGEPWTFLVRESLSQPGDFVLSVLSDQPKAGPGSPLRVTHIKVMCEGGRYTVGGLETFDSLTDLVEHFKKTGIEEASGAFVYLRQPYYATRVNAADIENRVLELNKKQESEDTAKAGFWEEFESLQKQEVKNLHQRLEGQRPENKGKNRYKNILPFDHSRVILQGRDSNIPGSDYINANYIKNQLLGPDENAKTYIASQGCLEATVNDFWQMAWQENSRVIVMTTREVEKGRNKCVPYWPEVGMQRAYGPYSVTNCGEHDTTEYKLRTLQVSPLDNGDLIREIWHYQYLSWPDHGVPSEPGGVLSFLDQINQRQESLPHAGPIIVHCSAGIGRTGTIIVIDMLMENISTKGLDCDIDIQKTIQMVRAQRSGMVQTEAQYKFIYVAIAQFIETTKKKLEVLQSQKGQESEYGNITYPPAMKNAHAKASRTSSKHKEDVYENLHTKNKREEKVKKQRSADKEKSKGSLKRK

endogenous SHP-1 of HepG2 cells, P29350 1-595 (natural protein; other documents disagree on this pair)
percent of nuclei with PLA dots: 44 % of nuclei
